This is an account of results in US20130287781A1.

Test [1] concerns the target Cynomolgus monkey NOGO (A56) plus GST tag (cynomolgus monkey). Briefly: direct ELISA on GST-NOGO-A56 from cynomolgus, Abs490.
Test [2] concerns the target Squirrel monkey NOGO (A56) plus GST tag (squirrel monkey). The test can be described thus: direct ELISA on GST-NOGO-A56 from squirrel monkey, Abs490.
The target is the same in test [3]. The test can be described thus: SPR (Biacore T100), reverse format: antibody captured by Protein A, GST-NOGO-A56 flowed over; mean.
Test [4] addresses Rat NOGO (A56) plus GST tag (rat). Described as above.
Test [5] concerns the target Marmoset NOGO (A56) plus GST tag (marmoset). The description is as above.
For test [6], the target named is GST-human NOGO-A56 (human). The test is described as above.
Test [7] has as its target Cynomolgus monkey NOGO (A56) plus GST tag (cynomolgus monkey). The description is as above.
The target in test [8] is GST-human NOGO-A56 (human). Briefly: SPR (Biacore T100), human Nogo-A amine-coupled to CM5, antibody 0.125-8 nM flowed over; mean.
Test [9] concerns the target Squirrel monkey NOGO (A56) plus GST tag (squirrel monkey). Briefly: SPR (Biacore T100), Nogo-A orthologue amine-coupled to CM5, antibody 0.125-8 nM flowed over; mean.
For test [10], the target named is Rat NOGO (A56) plus GST tag (rat). Described as above.
Test [11] has as its target Marmoset NOGO (A56) plus GST tag (marmoset). The test is described as above.
In test [12] the target is Cynomolgus monkey NOGO (A56) plus GST tag (cynomolgus monkey). The test is described as above.
The target of test [13] is Rat NOGO (A56) plus GST tag (rat). Briefly: direct ELISA on GST-NOGO-A56 from rat, Abs490.
The target in test [14] is Marmoset NOGO (A56) plus GST tag (marmoset). The test can be described thus: direct ELISA on GST-NOGO-A56 from marmoset, Abs490.
Chain of Marmoset NOGO (A56) plus GST tag (marmoset) (chain, as listed by the source limits assumed): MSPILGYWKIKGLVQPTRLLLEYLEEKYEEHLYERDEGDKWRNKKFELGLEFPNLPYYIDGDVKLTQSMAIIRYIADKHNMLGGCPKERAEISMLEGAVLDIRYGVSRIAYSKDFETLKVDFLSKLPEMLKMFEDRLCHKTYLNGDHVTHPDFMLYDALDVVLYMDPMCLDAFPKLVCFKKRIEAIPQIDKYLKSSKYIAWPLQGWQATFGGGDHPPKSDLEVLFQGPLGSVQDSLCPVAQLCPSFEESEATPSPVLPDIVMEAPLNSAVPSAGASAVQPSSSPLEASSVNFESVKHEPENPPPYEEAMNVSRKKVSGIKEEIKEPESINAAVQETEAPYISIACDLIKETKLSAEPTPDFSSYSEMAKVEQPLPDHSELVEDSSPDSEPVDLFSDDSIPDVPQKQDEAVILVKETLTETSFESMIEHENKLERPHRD

Chain of Cynomolgus monkey NOGO (A56) plus GST tag (cynomolgus monkey) (chain, as listed by the source limits assumed): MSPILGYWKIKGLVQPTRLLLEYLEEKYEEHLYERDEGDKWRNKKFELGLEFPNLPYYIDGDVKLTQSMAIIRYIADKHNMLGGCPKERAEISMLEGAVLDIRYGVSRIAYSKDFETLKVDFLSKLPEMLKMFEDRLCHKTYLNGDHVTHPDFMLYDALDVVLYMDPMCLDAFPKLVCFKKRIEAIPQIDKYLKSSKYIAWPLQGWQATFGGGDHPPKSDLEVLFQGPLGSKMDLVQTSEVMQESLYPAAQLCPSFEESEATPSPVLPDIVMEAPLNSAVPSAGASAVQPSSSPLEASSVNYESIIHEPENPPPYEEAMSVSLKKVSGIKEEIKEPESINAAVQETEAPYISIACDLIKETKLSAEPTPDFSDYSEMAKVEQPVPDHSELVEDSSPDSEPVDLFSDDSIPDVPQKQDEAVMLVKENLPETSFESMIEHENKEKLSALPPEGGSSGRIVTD
Chain of Rat NOGO (A56) plus GST tag (rat) (chain, as listed by the source limits assumed): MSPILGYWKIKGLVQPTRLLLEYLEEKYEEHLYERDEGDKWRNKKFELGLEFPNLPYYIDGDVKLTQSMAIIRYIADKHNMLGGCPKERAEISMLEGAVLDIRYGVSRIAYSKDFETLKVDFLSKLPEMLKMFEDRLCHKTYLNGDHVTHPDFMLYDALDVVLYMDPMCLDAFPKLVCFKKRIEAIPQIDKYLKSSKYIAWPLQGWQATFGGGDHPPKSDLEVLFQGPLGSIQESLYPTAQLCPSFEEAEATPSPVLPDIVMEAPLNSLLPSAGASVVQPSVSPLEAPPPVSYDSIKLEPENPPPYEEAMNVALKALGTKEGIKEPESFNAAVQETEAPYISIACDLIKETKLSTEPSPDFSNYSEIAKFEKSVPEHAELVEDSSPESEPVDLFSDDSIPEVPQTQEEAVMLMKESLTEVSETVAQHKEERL
Chain of Squirrel monkey NOGO (A56) plus GST tag (squirrel monkey) (chain, as listed by the source limits assumed): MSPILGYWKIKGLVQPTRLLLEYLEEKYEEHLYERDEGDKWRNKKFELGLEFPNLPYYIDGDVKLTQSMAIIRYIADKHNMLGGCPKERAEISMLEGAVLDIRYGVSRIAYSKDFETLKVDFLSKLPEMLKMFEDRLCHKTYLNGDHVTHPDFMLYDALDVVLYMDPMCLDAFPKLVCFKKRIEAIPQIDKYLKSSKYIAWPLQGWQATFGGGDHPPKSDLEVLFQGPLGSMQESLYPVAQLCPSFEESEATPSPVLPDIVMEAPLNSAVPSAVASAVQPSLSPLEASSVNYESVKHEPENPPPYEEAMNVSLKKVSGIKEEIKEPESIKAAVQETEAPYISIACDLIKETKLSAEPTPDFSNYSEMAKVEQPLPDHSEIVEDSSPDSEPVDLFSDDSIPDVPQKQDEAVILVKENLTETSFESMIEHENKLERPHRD
Chain of GST-human NOGO-A56 (human) (chain, as listed by the source limits assumed): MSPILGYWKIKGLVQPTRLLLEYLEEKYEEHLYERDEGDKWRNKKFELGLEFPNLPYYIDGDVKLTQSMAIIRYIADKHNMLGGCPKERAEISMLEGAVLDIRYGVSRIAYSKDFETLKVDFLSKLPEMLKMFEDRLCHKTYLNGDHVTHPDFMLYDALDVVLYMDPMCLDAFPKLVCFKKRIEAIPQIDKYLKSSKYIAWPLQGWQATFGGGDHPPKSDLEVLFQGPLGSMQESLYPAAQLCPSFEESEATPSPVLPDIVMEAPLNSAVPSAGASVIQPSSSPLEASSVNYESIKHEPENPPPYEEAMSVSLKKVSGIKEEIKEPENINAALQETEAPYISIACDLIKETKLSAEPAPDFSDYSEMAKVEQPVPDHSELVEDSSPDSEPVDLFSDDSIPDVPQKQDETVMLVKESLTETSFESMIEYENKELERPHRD

Consider chimeric 11C7 (antibody), for which the half-maximal effective concentration (EC50 (read off the curve)) was determined as 0.06 µg/mL in test [1], 0.04 µg/mL in test [2], 0.06 µg/mL in test [13] and 0.04 µg/mL in test [14]. The equilibrium dissociation constant (Kd) turned out to be 2.69 nM in [3]; 0.64 nM in test [4]; 1.33 nM in test [5]; 0.57 nM in test [6]; 0.76 nM in [7]; 0.19 nM in test [8]. Also, the Kd came to 0.26 nM in test [9], 0.11 nM in [10], 0.24 nM in test [11] and 0.23 nM in test [12].
